# Test results: the supplement of paper PMC5998384
# Columns and labels:
# [1] = system: HeLa Kyoto; assay: solubility in G1/S (NP-40 vs SDS abundance) (log2 ratio); higher = more soluble; settings: cell cycle stage: G1/S
# [2] = system: HeLa Kyoto; assay: melting temperature (median over replicates), in situ; higher = more thermally stable
# [3] = system: HeLa Kyoto; assay: solubility change mitosis vs G1/S (difference of NP-40 vs SDS log2 ratios) (log2 ratio difference); higher = more soluble in mitosis
# [4] = system: HeLa Kyoto; assay: thermal stability score vs G1/S (z-score of summed log2 fold changes over temperatures); higher = more thermally stable than in G1/S
# [5] = cell cycle stage: early G1 (4.5 h after nocodazole release)
# 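Wherever melting temperature (median over replicates), in situ is given: HeLa Kyoto cells synchronized by double thymidine or nocodazole block, proteins quantified by TMT10plex mass spectrometry, three independent biological replicates.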
# 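Wherever solubility change mitosis vs G1/S (difference of NP-40 vs SDS log2 ratios) is given: synchronized HeLa Kyoto cells (double thymidine block for G1/S, nocodazole release for mitosis), protein amounts in NP-40 versus SDS lysates quantified by mass spectrometry, three biological replicates.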
# 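Wherever solubility in G1/S (NP-40 vs SDS abundance) is given: HeLa Kyoto cells arrested at G1/S by double thymidine block, proteins quantified by TMT10plex mass spectrometry in mild NP-40 versus SDS extracts, three biological replicates.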
# 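Wherever thermal stability score vs G1/S (z-score of summed log2 fold changes over temperatures) is given: synchronized HeLa Kyoto cells, proteins quantified by TMT10plex mass spectrometry, three biological replicates, mitosis taken 0.5 h after nocodazole release, G1/S directly after double thymidine block.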
# Sequence of NARFL (chain, as listed by the source): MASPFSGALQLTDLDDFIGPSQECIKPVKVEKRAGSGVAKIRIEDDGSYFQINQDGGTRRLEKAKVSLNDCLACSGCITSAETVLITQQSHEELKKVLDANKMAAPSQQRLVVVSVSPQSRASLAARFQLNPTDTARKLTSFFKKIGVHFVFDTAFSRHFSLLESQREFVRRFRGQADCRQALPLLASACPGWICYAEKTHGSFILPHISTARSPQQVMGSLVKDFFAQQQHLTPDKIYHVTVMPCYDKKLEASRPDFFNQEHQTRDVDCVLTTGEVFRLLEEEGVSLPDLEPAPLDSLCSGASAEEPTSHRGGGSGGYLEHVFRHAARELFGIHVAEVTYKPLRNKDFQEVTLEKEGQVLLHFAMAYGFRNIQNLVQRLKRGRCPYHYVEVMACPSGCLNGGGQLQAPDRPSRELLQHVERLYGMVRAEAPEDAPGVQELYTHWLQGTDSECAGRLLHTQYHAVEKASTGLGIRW
# Sequence of HDGF (chain, as listed by the source): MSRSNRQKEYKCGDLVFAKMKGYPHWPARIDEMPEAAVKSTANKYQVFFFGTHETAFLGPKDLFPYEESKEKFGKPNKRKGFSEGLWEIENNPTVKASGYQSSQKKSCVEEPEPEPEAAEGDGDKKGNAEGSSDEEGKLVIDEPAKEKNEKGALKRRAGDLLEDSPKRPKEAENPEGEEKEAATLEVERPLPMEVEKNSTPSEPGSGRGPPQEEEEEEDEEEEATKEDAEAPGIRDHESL
Substance,solubility in G1/S (log2) [1],melting temperature ([2]; cell cycle stage: G1/S) [°C],melting temperature ([2]; cell cycle stage: mitosis) [°C],solubility change mitosis (log2) [3],"thermal stability score [4, 5]",thermal stability score ([4]; cell cycle stage: mitosis)
MATELEYESVLCVKPDVSVYRIPPRASNRGYRASDWKLDQPDWTGRLRITSKGKTAYIKLEDKVSGELFAQAPVEQYPGIAVETVTDSSRYFVIRIQDGTGRSAFIGIGFTDRGDAFDFNVSLQDHFKWVKQESEISKESQEMDARPKLDLGFKEGQTIKLCIGNITNKKGGASKPRTARGGGLSLLPPPPGGKVTIPPPSSSVAISNHVTPPPIPKSNHGGSDADILLDLDSPAPVTTPAPTPVSVSNDLWGDFSTASSSVPNQAPQPSNWVQF [NECAP1],0.521,51.5,52.4,-0.274,0.202,0.108
MEFAELIKTPRVDNVVLHRPFYPAVEGTLCLTGHHLILSSRQDNTEELWLLHSNIDAIDKRFVGSLGTIIIKCKDFRIIQLDIPGMEECLNIASSIEALSTLDSITLMYPFFYRPMFEVIEDGWHSFLPEQEFELYSSATSEWRLSYVNKEFAVCPSYPPIVTVPKSIDDEALRKVATFRHGGRFPVLSYYHKKNGMVIMRSGQPLTGTNGRRCKEDEKLINATLRAGKRGYIIDTRSLNVAQQTRAKGGGFEQEAHYPQWRRIHKSIERYHILQESLIKLVEACNDQTHNMDRWLSKLEASNWLTHIKEILTTACLAAQCIDREGASILIHGTEGTDSTLQVTSLAQIILEPRSRTIRGFEALIEREWLQAGHPFQQRCAQSAYCNTKQKWEAPVFLLFLDCVWQILRQFPCSFEFNENFLIMLFEHAYASQFGTFLGNNESERCKLKLQQKTMSLWSWVNQPSELSKFTNPLFEANNLVIWPSVAPQSLPLWEGIFLRWNRSSKYLDEAYEEMVNIIEYNKELQAKVNILRRQLAELETEDGMQESP [MTMR9],-0.116,50.2,50.6,-0.125,-0.213,-0.626
MGSSATEIEELENTTFKYLTGEQTEKMWQRLKGILRCLVKQLERGDVNVVDLKKNIEYAASVLEAVYIDETRRLLDTEDELSDIQTDSVPSEVRDWLASTFTRKMGMTKKKPEEKPKFRSIVHAVQAGIFVERMYRKTYHMVGLAYPAAVIVTLKDVDKWSFDVFALNEASGEHSLKFMIYELFTRYDLINRFKIPVSCLITFAEALEVGYSKYKNPYHNLIHAADVTQTVHYIMLHTGIMHWLTELEILAMVFAAAIHDYEHTGTTNNFHIQTRSDVAILYNDRSVLENHHVSAAYRLMQEEEMNILINLSKDDWRDLRNLVIEMVLSTDMSGHFQQIKNIRNSLQQPEGIDRAKTMSLILHAADISHPAKSWKLHYRWTMALMEEFFLQGDKEAELGLPFSPLCDRKSTMVAQSQIGFIDFIVEPTFSLLTDSTEKIVIPLIEEASKAETSSYVASSSTTIVGLHIADALRRSNTKGSMSDGSYSPDYSLAAVDLKSFKNNLVDIIQQNKERWKELAAQEARTSSQKCEFIHQ [PDE1A],-0.162,55.2,54.1,-0.0985,1.43,2.27
HDGF,0.426,53.5,53.2,0.219,-2.27,-3.47
MAATLLAARGAGPAPAWGPEAFTPDWESREVSTGTTIMAVQFDGGVVLGADSRTTTGSYIANRVTDKLTPIHDRIFCCRSGSAADTQAVADAVTYQLGFHSIELNEPPLVHTAASLFKEMCYRYREDLMAGIIIAGWDPQEGGQVYSVPMGGMMVRQSFAIGGSGSSYIYGYVDATYREGMTKEECLQFTANALALAMERDGSSGGVIRLAAIAESGVERQVLLGDQIPKFAVATLPPA [PSMB6],0.119,59,59.6,-0.103,-1.97,-2.64
MEANGLGPQGFPELKNDTFLRAAWGEETDYTPVWCMRQAGRYLPEFRETRAAQDFFSTCRSPEACCELTLQPLRRFPLDAAIIFSDILVVPQALGMEVTMVPGKGPSFPEPLREEQDLERLRDPEVVASELGYVFQAITLTRQRLAGRVPLIGFAGAPWTLMTYMVEGGGSSTMAQAKRWLYQRPQASHQLLRILTDALVPYLVGQVVAGAQALQLFESHAGHLGPQLFNKFALPYIRDVAKQVKARLREAGLAPVPMIIFAKDGHFALEELAQAGYEVVGLDWTVAPKKARECVGKTVTLQGNLDPCALYASEEEIGQLVKQMLDDFGPHRYIANLGHGLYPDMDPEHVGAFVDAVHKHSRLLRQN [UROD],0.254,56.5,56.7,-0.193,-0.168,-0.608
MGPGPSRAPRAPRLMLCALALMVAAGGCVVSAFNLDTRFLVVKEAGNPGSLFGYSVALHRQTERQQRYLLLAGAPRELAVPDGYTNRTGAVYLCPLTAHKDDCERMNITVKNDPGHHIIEDMWLGVTVASQGPAGRVLVCAHRYTQVLWSGSEDQRRMVGKCYVRGNDLELDSSDDWQTYHNEMCNSNTDYLETGMCQLGTSGGFTQNTVYFGAPGAYNWKGNSYMIQRKEWDLSEYSYKDPEDQGNLYIGYTMQVGSFILHPKNITIVTGAPRHRHMGAVFLLSQEAGGDLRRRQVLEGSQVGAYFGSAIALADLNNDGWQDLLVGAPYYFERKEEVGGAIYVFMNQAGTSFPAHPSLLLHGPSGSAFGLSVASIGDINQDGFQDIAVGAPFEGLGKVYIYHSSSKGLLRQPQQVIHGEKLGLPGLATFGYSLSGQMDVDENFYPDLLVGSLSDHIVLLRARPVINIVHKTLVPRPAVLDPALCTATSCVQVELCFAYNQSAGNPNYRRNITLAYTLEADRDRRPPRLRFAGSESAVFHGFFSMPEMRCQKLELLLMDNLRDKLRPIIISMNYSLPLRMPDRPRLGLRSLDAYPILNQAQALENHTEVQFQKECGPDNKCESNLQMRAAFVSEQQQKLSRLQYSRDVRKLLLSINVTNTRTSERSGEDAHEALLTLVVPPALLLSSVRPPGACQANETIFCELGNPFKRNQRMELLIAFEVIGVTLHTRDLQVQLQLSTSSHQDNLWPMILTLLVDYTLQTSLSMVNHRLQSFFGGTVMGESGMKTVEDVGSPLKYEFQVGPMGEGLVGLGTLVLGLEWPYEVSNGKWLLYPTEITVHGNGSWPCRPPGDLINPLNLTLSDPGDRPSSPQRRRRQLDPGGGQGPPPVTLAAAKKAKSETVLTCATGRAHCVWLECPIPDAPVVTNVTVKARVWNSTFIEDYRDFDRVRVNGWATLFLRTSIPTINMENKTTWFSVDIDSELVEELPAEIELWLVLVAVGAGLLLLGLIILLLWKCGFFKRARTRALYEAKRQKAEMKSQPSETERLTDDY [ITGA3],0.0349,56.8,59.2,0.0722,-0.693,-1.42
NARFL,0.0811,54.2,53.8,-0.0938,0.41,0.802
MAGSVGLALCGQTLVVRGGSRFLATSIASSDDDSLFIYDCSAAEKKSQENKGEDAPLDQGSGAILASTFSKSGSYFALTDDSKRLILFRTKPWQCLSVRTVARRCTALTFIASEEKVLVADKSGDVYSFSVLEPHGCGRLELGHLSMLLDVAVSPDDRFILTADRDEKIRVSWAAAPHSIESFCLGHTEFVSRISVVPTQPGLLLSSSGDGTLRLWEYRSGRQLHCCHLASLQELVDPQAPQKFAASRIAFWCQENCVALLCDGTPVVYIFQLDARRQQLVYRQQLAFQHQVWDVAFEETQGLWVLQDCQEAPLVLYRPVGDQWQSVPESTVLKKVSGVLRGNWAMLEGSAGADASFSSLYKATFDNVTSYLKKKEERLQQQLEKKQRRRSPPPGPDGHAKKMRPGEATLSC [WDR4],-0.256,52.8,53.9,-0.396,0.0653,-0.0979
MAASRPLSRFWEWGKNIVCVGRNYADHVREMRSAVLSEPVLFLKPSTAYAPEGSPILMPAYTRNLHHELELGVVMGKRCRAVPEAAAMDYVGGYALCLDMTARDVQDECKKKGLPWTLAKSFTASCPVSAFVPKEKIPDPHKLKLWLKVNGELRQEGETSSMIFSIPYIISYVSKIITLEEGDIILTGTPKGVGPVKENDEIEAGIHGLVSMTFKVEKPEY [FAHD1],0.144,53.5,60,-0.257,-1.32,-1.65
MPHLPLASFRPPFWGLRHSRGLPRFHSVSTQSEPHGSPISRRNREAKQKRLREKQATLEAEIAGESKSPAESIKAWRPKELVLYEIPTKPGEKKDVSGPLPPAYSPRYVEAAWYPWWVREGFFKPEYQARLPQATGETFSMCIPPPNVTGSLHIGHALTVAIQDALVRWHRMRGDQVLWVPGSDHAGIATQAVVEKQLWKERGVRRHELSREAFLREVWQWKEAKGGEICEQLRALGASLDWDRECFTMDVGSSVAVTEAFVRLYKAGLLYRNHQLVNWSCALRSAISDIEVENRPLPGHTQLRLPGCPTPVSFGLLFSVAFPVDGEPDAEVVVGTTRPETLPGDVAVAVHPDDSRYTHLHGRQLRHPLMGQPLPLITDYAVQPHVGTGAVKVTPAHSPADAEMGARHGLSPLNVIAEDGTMTSLCGDWLQGLHRFVAREKIMSVLSEWGLFRGLQNHPMVLPICSRSGDVIEYLLKNQWFVRCQEMGARAAKAVESGALELSPSFHQKNWQHWFSHIGDWCVSRQLWWGHQIPAYLVVEDHAQGEEDCWVVGRSEAEAREVAAELTGRPGAELTLERDPDVLDTWFSSALFPFSALGWPQETPDLARFYPLSLLETGSDLLLFWVGRMVMLGTQLTGQLPFSKVLLHPMVRDRQGRKMSKSLGNVLDPRDIISGVEMQVLQEKLRSGNLDPAELAIVAAAQKKDFPHGIPECGTDALRFTLCSHGVQAGDLHLSVSEVQSCRHFCNKIWNALRFILNALGEKFVPQPAEELSPSSPMDAWILSRLALAAQECERGFLTRELSLVTHALHHFWLHNLCDVYLEAVKPVLWHSPRPLGPPQVLFSCADLGLRLLAPLMPFLAEELWQRLPPRPGCPPAPSISVAPYPSACSLEHWRQPELERRFSRVQEVVQVLRALRATYQLTKARPRVLLQSSEPGDQGLFEAFLEPLGTLGYCGAVGLLPPGAAAPSGWAQAPLSDTAQVYMELQGLVDPQIQLPLLAARRYKLQKQLDSLTARTPSEGEAGTQRQQKLSSLQLELSKLDKAASHLRQLMDEPPAPGSPEL [VARS2],-0.0605,52,52.1,0.0161,0.335,0.452
MAAWKSWTALRLCATVVVLDMVVCKGFVEDLDESFKENRNDDIWLVDFYAPWCGHCKKLEPIWNEVGLEMKSIGSPVKVGKMDATSYSSIASEFGVRGYPTIKLLKGDLAYNYRGPRTKDDIIEFAHRVSGALIRPLPSQQMFEHMQKRHRVFFVYVGGESPLKEKYIDAASELIVYTYFFSASEEVVPEYVTLKEMPAVLVFKDETYFVYDEYEDGDLSSWINRERFQNYLAMDGFLLYELGDTGKLVALAVIDEKNTSVEHTRLKSIIQEVARDYRDLFHRDFQFGHMDGNDYINTLLMDELTVPTVVVLNTSNQQYFLLDRQIKNVEDMVQFINNILDGTVEAQGGDSILQRLKRIVFDAKSTIVSIFKSSPLMGCFLFGLPLGVISIMCYGIYTADTDGGYIEERYEVSKSENENQEQIEESKEQQEPSSGGSVVPTVQEPKDVLEKKKD [TMX3],0.2,54.5,54.3,-0.0543,0.827,3.44
MGTRDDEYDYLFKVVLIGDSGVGKSNLLSRFTRNEFNLESKSTIGVEFATRSIQVDGKTIKAQIWDTAGQERYRAITSAYYRGAVGALLVYDIAKHLTYENVERWLKELRDHADSNIVIMLVGNKSDLRHLRAVPTDEARAFAEKNNLSFIETSALDSTNVEEAFKNILTEIYRIVSQKQIADRAAHDESPGNNVVDISVPPTTDGQKPNKLQCCQNL [RAB11B],0.136,57.1,57.5,-0.0727,0.344,-0.699
